Data reported in patent US20200102387A1 (CELGENE, published 2020).
Like-named read-outs stand apart in the source and are kept apart here.

Assays:
human SIRPα on cells [1] = molecular target: T1, human SIRPα on cells (human, UniProt P78324 31-504); assay: cell-based or functional assay
human SIRPα on cells [2] = molecular target: T1, human SIRPα on cells; assay: cell-based or functional assay; remark: listed apart in the source
FcγR3A (CD16aV158) [3] = molecular target: T2, FcγR3A (CD16aV158) (human, UniProt P08637 17-254); assay: cell binding, FcγR-engineered HEK293 cells
T2 construct: whole, on cells

FcγR1 (CD64) = molecular target: T3, FcγR1 (CD64) (human, UniProt P12314 16-374); assay: cell binding, FcγR-engineered HEK293 cells
T3 construct: whole, on cells

FcγR2B = molecular target: T4, FcγR2B (human, UniProt P31994 43-310); assay: cell binding, FcγR-engineered HEK293 cells
T4 construct: whole, on cells
T4 sequence (looked up): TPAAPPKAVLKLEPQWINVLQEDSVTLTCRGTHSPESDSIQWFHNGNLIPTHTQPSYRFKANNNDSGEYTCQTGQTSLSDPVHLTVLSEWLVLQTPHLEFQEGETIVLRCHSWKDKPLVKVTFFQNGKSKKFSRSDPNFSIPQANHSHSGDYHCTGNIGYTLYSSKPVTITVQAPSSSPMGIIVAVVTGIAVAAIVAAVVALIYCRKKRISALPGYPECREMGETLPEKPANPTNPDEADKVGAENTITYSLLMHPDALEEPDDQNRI

FcγR3A (CD16aV158) [4] = molecular target: T2, FcγR3A (CD16aV158); assay: cell binding, FcγR-engineered HEK293 cells; remark: listed apart in the source
[5] = molecular target: T5, rat SIRPα on CHO-K1 cells (rat, UniProt P97710 32-509); assay: flow cytometry on Rat SIRPα-CHO-K1 cells
T5 construct: whole, on cells; also called rat SIRPα-CHO-K1
T5 sequence (looked up): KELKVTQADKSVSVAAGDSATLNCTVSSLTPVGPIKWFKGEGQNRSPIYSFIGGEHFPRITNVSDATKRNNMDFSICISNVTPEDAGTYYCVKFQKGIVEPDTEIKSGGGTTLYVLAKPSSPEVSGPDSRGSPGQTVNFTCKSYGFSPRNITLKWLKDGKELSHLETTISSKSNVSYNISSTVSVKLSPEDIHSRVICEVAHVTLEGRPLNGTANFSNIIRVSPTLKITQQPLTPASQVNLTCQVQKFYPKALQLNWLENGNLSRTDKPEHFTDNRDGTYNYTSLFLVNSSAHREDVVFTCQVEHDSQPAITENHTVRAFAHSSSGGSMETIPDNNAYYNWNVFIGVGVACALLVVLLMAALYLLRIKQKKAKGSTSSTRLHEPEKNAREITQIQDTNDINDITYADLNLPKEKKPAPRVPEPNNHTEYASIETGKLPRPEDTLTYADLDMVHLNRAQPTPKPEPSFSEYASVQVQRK

[6] = molecular target: T6, SIRPβ extracellular domain (human, UniProt O00241 30-371); assay: SPR Biacore T200, antibody on Protein A chip, 1:1 Langmuir fit
T6 construct: also called hSIRPβ - ECD
T6 chain: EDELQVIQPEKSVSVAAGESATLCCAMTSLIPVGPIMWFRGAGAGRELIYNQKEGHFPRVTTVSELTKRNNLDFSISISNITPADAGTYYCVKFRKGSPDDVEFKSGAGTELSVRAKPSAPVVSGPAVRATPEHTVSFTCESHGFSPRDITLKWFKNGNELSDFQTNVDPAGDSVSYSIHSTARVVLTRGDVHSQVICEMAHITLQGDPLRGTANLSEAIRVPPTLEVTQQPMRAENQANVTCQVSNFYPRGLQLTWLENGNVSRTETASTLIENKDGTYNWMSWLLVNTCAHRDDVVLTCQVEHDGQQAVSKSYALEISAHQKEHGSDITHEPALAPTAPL

[7] = molecular target: T7, SIRPγ extracellular domain (human, UniProt Q9P1W8 29-360); assay: as above
T7 construct: also called hSIRPγ - ECD

[8] = molecular target: T8, cynomolgus SIRPα on cells (cynomolgus, UniProt P78324 31-373 (human entry)); assay: flow cytometry, cyno SIRPα-CHO cells, anti-human IgG-AF647 detection
T8 construct: also called cyno SIRPα-CHO; Cyno SIRPα-CHO-K1; not shown: Transmembrane and cytoplasmic region of cynomolgus SIRPα
T8 chain: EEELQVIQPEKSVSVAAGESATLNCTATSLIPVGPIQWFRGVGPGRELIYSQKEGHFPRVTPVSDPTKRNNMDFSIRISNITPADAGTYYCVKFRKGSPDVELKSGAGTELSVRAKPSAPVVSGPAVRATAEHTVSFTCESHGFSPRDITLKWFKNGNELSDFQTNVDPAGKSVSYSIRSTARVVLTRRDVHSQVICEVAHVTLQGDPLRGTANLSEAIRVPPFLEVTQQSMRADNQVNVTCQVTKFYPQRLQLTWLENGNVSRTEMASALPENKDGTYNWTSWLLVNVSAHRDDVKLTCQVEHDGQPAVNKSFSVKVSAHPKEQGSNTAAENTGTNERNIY

human SIRPα on cells [9] = molecular target: T1, human SIRPα on cells; assay: flow cytometry, human SIRPα-CHO cells, anti-human IgG-AF647 detection
[10] = molecular target: T9, recombinant SIRPα protein (Novoprotein, catalog number C385) (human, UniProt P78324 31-370); assay: SPR Biacore T200 competition in solution, SIRPα 20 nM, competitor immobilized CD47-ECD
T9 construct: also called human recombinant SIRPα protein; SIRPα antigen

[11] = molecular target: T10, extracellular domain of SIRPα v1-DLN (e.g. SIRPα1) (human, UniProt P78324 31-373); assay: SPR Biacore T200, antibody on Protein A chip, 1:1 Langmuir fit; comparative Biacore study of Table 30, a separate experiment from Table 15
T10 construct: also called hSIRPα - ECD (v1)

B1: SIRPAB-11-K322A (antibody, human IgG1, kappa)
light: DIQMTQSPSSVSASVGDRVTITCRASQGISSWLAWYQQKPGKAPKLLIYAASNLQSGVPSRFSGSGSGTDFTLTISSLQPEDFATYYCQQGASFPITFGGGTKVEIKRTVAAPSVFIFPPSDEQLKSGTASVVCLLNNFYPREAKVQWKVDNALQSGNSQESVTEQDSKDSTYSLSSTLTLSKADYEKHKVYACEVTHQGLSSPVTKSFNRGEC
heavy: not shown
notes: human IgG1 with K322A (EU numbering); also called SIRPAB-11-IgG1-K322A; SIRPAB-11-K322A-AlexaFluor647
mean EC50 (n=2 donors) of percent phagocytic macrophages; OCI-LY3; with 0.1 nM rituximab (human SIRPα on cells [1]): 0.11 nM | EC50 of percent phagocytic macrophages; FaDu; donor 358; 0.2 nM cetuximab (human SIRPα on cells [2]): 0.075 nM | EC50 of percent phagocytic macrophages; FaDu; donor 358; 1 nM cetuximab (human SIRPα on cells [2]): 0.049 nM | EC50 of percent phagocytic macrophages; GP2d; donor 338; 0.2 nM cetuximab (human SIRPα on cells [2]): 0.657 nM | EC50 of percent phagocytic macrophages; GP2d; donor 338; 1 nM cetuximab (human SIRPα on cells [2]): 0.495 nM | EC50 of percent phagocytic macrophages; GP2d; donor 358; 0.2 nM cetuximab (human SIRPα on cells [2]): 16.2 nM | EC50 of percent phagocytic macrophages; GP2d; donor 358; 1 nM cetuximab (human SIRPα on cells [2]): 0.247 nM | EC50 of percent phagocytic macrophages; GP2d; mean; 0.2 nM cetuximab (human SIRPα on cells [2]): 8.43 nM | EC50 of percent phagocytic macrophages; GP2d; mean; 1 nM cetuximab (human SIRPα on cells [2]): 0.371 nM | EC50 of percent phagocytic macrophages; GP5d; donor 338; 0.2 nM cetuximab (human SIRPα on cells [2]): 0.543 nM | EC50 of percent phagocytic macrophages; GP5d; donor 338; 1 nM cetuximab (human SIRPα on cells [2]): 0.714 nM | EC50 of percent phagocytic macrophages; GP5d; donor 358; 0.2 nM cetuximab (human SIRPα on cells [2]): 0.886 nM | EC50 of percent phagocytic macrophages; GP5d; donor 358; 1 nM cetuximab (human SIRPα on cells [2]): 0.162 nM | EC50 of percent phagocytic macrophages; GP5d; mean; 0.2 nM cetuximab (human SIRPα on cells [2]): 0.715 nM | EC50 of percent phagocytic macrophages; GP5d; mean; 1 nM cetuximab (human SIRPα on cells [2]): 0.438 nM | EC50 of percent phagocytic macrophages; SW480; donor 338; 0.2 nM cetuximab (human SIRPα on cells [2]): 0.2 nM | EC50 of percent phagocytic macrophages; SW480; donor 338; 1 nM cetuximab (human SIRPα on cells [2]): 0.461 nM | EC50 of percent phagocytic macrophages; SW480; donor 358; 0.2 nM cetuximab (human SIRPα on cells [2]): 2.06 nM | EC50 of percent phagocytic macrophages; SW480; donor 358; 1 nM cetuximab (human SIRPα on cells [2]): 0.102 nM | EC50 of percent phagocytic macrophages; SW480; mean; 0.2 nM cetuximab (human SIRPα on cells [2]): 1.13 nM | EC50 of percent phagocytic macrophages; SW480; mean; 1 nM cetuximab (human SIRPα on cells [2]): 0.282 nM | EC50 (FcγR3A (CD16aV158) [3]): 795 nM | EC50 (FcγR1 (CD64)): 0.79 nM | EC50 (FcγR2B): 2710 nM | EC50 (FcγR3A (CD16aV158) [4]): 142 nM | binding result [5]: no binding (tested: 100 nM (Log nM 2)) | Kd [6]: 0.38 nM | Kd [7]: 0.0632 nM | EC50 [8]: 1.9 nM | EC50 (human SIRPα on cells [9]): 2.06 nM | IC50 [10]: 12.6 nM | Kd [11]: 0.0923 nM
